Test results as given in patent US10456465B2, “Compositions, kits, and methods for the diagnosis prognosis, monitoring, treatment and modulation of post-transplant lymphoproliferative disorders and hypoxia associated angiogenesis disorders using galectin-1” (Dana-Farber Cancer Institute, Inc., priority 2009, dated 2019).
Entries after “also recorded” stand apart in the source; their conditions may differ.

B1: anti-Gal1 monoclonal antibody 8F4F8G7 (antibody, V domains shown)
VH: EVQLQQSVAEFVRPGASVRLSCTASGFNIKNTYIHWVRQRPEQGLEWIGKIDPANGNTKYVPEFQGKATMTADTSSNTVYLHLSSLTSEDTAIYYCVDGYYGWYFAVWGTGTTVTVSS
VL: QAVVTQESALTTSPGETVTLTCRSSTGAVTTSNYANWVQEKPDHLFTGLIGATNNRAPGVPARFSGSLIGDKAVLTITGAQTEDEAIYFCALWYRNHFIFGSGTKVTVL
notes: Murine hybridoma mAb (deposit PTA-10535), lambda light chain; also called 14-19 8F4-F8-G7; clone 8F4.8F.67

Columns and labels:
[1] = molecular target: T1, VEGFR2 (Homo sapiens, UniProt P35968); assay: Co-immunoprecipitation of Gal1 with VEGFR2 in HUVEC lysates; type: binding; conditions: lysates of human ECs treated with Gal1
T1 construct: co-immunoprecipitation results followed by immunoblot analysis of HUVEC lysates; endogenous in cells; host or cells: primary HUVEC
T1 sequence (P35968 20-1356): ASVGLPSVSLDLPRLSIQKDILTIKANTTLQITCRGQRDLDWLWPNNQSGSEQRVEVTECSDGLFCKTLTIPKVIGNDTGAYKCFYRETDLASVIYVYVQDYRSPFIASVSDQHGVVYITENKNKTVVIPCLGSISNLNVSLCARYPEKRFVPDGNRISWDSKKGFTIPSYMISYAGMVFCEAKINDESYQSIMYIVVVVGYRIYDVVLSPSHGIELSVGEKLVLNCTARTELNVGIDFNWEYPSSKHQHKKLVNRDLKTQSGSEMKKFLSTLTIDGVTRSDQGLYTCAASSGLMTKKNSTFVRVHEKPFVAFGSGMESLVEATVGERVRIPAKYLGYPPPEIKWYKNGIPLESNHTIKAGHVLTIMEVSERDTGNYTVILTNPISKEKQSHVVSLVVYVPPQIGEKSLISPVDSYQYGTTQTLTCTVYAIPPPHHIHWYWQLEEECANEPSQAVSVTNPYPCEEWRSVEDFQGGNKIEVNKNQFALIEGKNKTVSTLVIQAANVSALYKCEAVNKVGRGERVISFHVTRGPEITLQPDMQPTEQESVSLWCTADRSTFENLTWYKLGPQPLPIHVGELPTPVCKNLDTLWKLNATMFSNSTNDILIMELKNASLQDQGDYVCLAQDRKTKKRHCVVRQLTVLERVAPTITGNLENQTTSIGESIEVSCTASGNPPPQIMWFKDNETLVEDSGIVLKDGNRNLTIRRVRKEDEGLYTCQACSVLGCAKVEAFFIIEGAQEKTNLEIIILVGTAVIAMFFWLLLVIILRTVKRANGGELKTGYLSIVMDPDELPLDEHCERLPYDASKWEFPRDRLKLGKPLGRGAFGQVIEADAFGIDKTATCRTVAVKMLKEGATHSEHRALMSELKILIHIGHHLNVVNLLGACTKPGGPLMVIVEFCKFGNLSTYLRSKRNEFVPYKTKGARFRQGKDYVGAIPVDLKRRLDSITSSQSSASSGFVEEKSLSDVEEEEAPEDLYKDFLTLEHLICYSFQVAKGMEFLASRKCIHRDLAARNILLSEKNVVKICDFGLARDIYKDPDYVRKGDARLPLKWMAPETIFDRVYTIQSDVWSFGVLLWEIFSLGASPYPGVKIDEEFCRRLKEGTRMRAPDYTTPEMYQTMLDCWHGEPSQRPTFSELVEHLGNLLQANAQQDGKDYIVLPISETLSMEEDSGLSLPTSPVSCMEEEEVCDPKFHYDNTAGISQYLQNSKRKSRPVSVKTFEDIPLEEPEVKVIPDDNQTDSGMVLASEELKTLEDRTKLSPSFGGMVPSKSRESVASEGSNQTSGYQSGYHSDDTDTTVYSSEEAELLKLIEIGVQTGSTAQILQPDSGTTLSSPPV
T1 sequence (P09382 2-135 partner limits assumed): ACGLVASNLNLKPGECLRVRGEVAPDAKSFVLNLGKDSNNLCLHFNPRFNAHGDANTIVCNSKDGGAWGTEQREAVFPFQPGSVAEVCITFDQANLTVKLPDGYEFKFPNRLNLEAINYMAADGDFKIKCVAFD
Protocol: (§1) Array (Cell Signaling) following manufacturer's directions. For co-immunoprecipitation, 500 μg cell lysates were incubated with 2 μg of anti-VEGFR2 (55B11; Cell Signaling) or anti-NRP-1 (C-19; Santa Cruz Biotechnol) antibodies. The immunocomplexes were captured with protein G PLUS-Agarose (Santa Cruz Biotechnol) and processed for immunoblot analysis as described in Ilarregui et al. (2009) Nat Immunol 10, 981-991. Equal amounts of protein were resolved by SDS-PAGE, blotted onto nitrocellulose membranes (GE Healthcare) and probed with anti-IκB-α (C21), anti-Erk1/2 (C14), anti-phospho-Erk1/2 (E4) or anti-actin (I-19) (all from Santa Cruz Biotechnol) or anti-Akt (9272), anti-phospho-Akt (9271S), anti-VEGFR2 (55B11), anti-phospho-VEGFR2 (19A10) (all from Cell Signaling) or anti-HIF-1α (mgc3; ABR BioReagent) antibodies or a rabbit anti-Gal1 IgG (1.5 μg/ml) obtained as described in Ilarregui et al. (2009) Nat Immunol 10, 981-991.

[2] = molecular target: rGal1 (Homo sapiens, UniProt P09382); assay: Anti-Gal1 mAb neutralization of rGal1-induced killing of EBV-specific CTLs; type: cell-based; conditions: rGal1 1.25, 2.5 or 5 μM pre-incubated with mAb; 4 h; 7AAD
Chain of rGal1 (P09382 whole entry): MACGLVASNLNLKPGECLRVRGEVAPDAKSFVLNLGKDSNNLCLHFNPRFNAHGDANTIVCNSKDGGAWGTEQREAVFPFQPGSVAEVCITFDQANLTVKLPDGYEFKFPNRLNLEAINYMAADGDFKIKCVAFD
Protocol: After informed consent, 40-60 ml of peripheral blood from healthy donors was used to generate both EBV-transformed LCLs and EBV-specific CTLs (Straathof et al. (2005) Blood 105:1898-904). In brief, 5×10^6 peripheral blood mononuclear cells (PBMCs) were incubated with concentrated culture supernatant from the marmoset B-lymphoblastoid cell line, B95-8, in the presence of 1 μg/ml cyclosporin A (Sandoz, Vienna, Austria) to establish a LCL. Subsequently, PBMCs (2×10^6 per well of a 24-well plate) were stimulated with irradiated LCLs (at 4,000 rads) at an effector-stimulator (E/S) ratio of 40:1. After 10 days, viable cells were restimulated with irradiated LCLs (at 4:1 E/S ratio). CTLs were expanded by weekly stimulations with autologous irradiated LCLs (at 4:1 E/S ratio) in the presence of recombinant human interleukin-2 (rhIL-2, Proleukin; Chiron Emeryville, Calif.) at concentration of 40 U/ml. After 5 cycles of stimulation, CTLs were tested for EBV specificity and cryopreserved. […]
CTLs were thawed in AIM-V media (Invitrogen) containing 10 U/ml of DNAse I (Roche Applied Science, Indianapolis, Ind.) and rested in culture overnight. […] After 4 hours, the viability of EBV-specific CD8^+ T cells was measured using 7AAD and APC-Cy7-labelled CD8 (BD Biosciences, San Jose, Calif.).

[3] = molecular target: T2, Gal8 (Homo sapiens, UniProt O00214); assay: Binding of 488-Gal8 to HUVEC; conditions: 488-Gal8 20 μg/ml, mAb 0.5 μM
T2 construct: made in house
T2 sequence (O00214 1-317): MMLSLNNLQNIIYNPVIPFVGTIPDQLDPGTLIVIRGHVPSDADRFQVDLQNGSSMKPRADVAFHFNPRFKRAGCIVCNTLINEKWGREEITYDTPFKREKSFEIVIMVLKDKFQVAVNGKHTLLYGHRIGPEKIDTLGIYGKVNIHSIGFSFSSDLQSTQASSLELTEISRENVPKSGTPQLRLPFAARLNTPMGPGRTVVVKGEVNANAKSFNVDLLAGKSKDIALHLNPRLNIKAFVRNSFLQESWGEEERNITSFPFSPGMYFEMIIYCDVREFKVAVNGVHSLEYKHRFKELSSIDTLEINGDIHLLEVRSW
Protocol: For glycophenotyping, ECs were incubated with biotinylated L-PHA, LEL, SNA, MAL II, PNA and HPA (all from Vector). Recombinant Gal1 was purified as described in Ilarregui et al. (2009) Nat Immunol 10, 981-991. For binding assays, ECs were incubated for 1 h at 4° C. with dyLight 488-labeled galectins in the absence or presence of lactose, sucrose, anti-Gal1 or isotype control mAb or following transfection with GnT5, GCNT1 or scrambled siRNA. Cells were analyzed on a FACSAria (BD Biosciences). For segregation, ECs were treated with Gal1 for 1 h, fixed and incubated for 1 h with anti-human VEGFR2 antibody (55B11; Cell Signaling) as described in Ilarregui et al. (2009) Nat Immunol 10, 981-991. Cells were analyzed on a Nikon laser confocal microscope (Eclipse E800).
DyLight 488-conjugated Gal1 (488-Gal1) was obtained using DyLight labeling kit (Thermo Scientific). Inhibitors of Jak2-STAT3 (AG490; 5 μM), Jnk-SAP (SP600125; 20 μM), p38 (SB202190; 10 μM), HIF-1α (3 μM) and O-glycosylation (benzyl-α-Ga1NAc; 2 mM) were from Calbiochem. Inhibitors of Erk1/2 (U0126; 5 μM), PI(3)K-Akt (Ly294002; 2 μM) and NF-κB (BAY 11-7082; 1 μM), ROS (N-acetyl-cysteine; NAC), N-glycosylation (swainsonine; 3 μM), lactose or sucrose (30 mM) were from Sigma. PNGase F (25 U/μg protein) was from New England Biolabs. […]

[4] = system: VEGFR2; assay: Immunoblot of VEGFR2 phosphorylation in HUVEC; type: cell-based, human
Protocol: as §1

Molecule | association with VEGFR2 [1] | rGal1-mediated apoptosis of EBV-specific CD8+ T cells [2] | effect on binding of Gal8 to the EC surface [3] | VEGFR2 phosphorylation in response to Gal1 [4]
rGal1: recombinant human galectin-1 | associated specifically |  |  | 
B1 |  | almost completely abrogated; also recorded: dramatically reduced | did not interfere | specifically inhibited
